Drawing on patent US7399752, this text covers concentration for one substance.

The experiment addresses LS-Rg, chimeric protein of the extracellular domain of human L-selectin joined to the Fc domain of a human G2 immunoglobulin (human) (UniProt P14151). Nature of the experiment: competition with radio-labeled 2'-F RNA ligand LF1807 for purified LS-Rg.

Chain of LS-Rg, chimeric protein of the extracellular domain of human L-selectin joined to the Fc domain of a human G2 immunoglobulin (human) (P14151 39-332, change not shown): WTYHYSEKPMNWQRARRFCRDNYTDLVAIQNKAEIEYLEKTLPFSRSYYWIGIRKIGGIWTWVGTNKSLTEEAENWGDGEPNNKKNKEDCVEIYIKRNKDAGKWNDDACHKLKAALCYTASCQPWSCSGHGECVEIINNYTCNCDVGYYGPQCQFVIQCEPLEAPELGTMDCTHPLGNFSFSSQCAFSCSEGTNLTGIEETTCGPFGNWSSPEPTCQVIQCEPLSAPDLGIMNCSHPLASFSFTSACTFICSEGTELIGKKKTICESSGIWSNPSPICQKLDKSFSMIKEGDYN

“DREG-56, L-selectin specific blocking monoclonal antibody” registered a concentration at which inhibition was complete of 300 nM.
